Patent US20260022175A1 (Chugai, published 2026)

Columns and labels:
[1] = biological target: T1, human FcγRIIa H allotype extracellular domain with C-terminal His-tag (human, UniProt P12318 34-217); assay: SPR Biacore T200, Ab captured via Fab-kappa, pH 7.4, 25C;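 note: each FcγR flowed as analyte over the captured antibodies, KD derived by 1:1 Langmuir or steady-state affinity fitting depending on the receptor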
T1 construct: extracellular domain; also called hFcγR IIa H
T1 sequence (looked up): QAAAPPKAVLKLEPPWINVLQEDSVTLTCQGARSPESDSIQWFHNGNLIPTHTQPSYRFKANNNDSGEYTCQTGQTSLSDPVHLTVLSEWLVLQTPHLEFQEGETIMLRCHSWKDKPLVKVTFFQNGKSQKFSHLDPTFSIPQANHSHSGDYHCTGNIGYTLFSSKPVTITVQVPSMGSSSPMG
Protocol: (§1) The interaction between the generated antibodies and human FcγRs was analyzed using Biacore T200. 50 mM Na-Phosphate, 150 mM NaCl, 0.05% Tween20 (pH 7.4) was used as the running buffer, and the assay was performed at 25° C. For the sensor chip, Series S SA (GE Healthcare) chips onto which CaptureSelect Human Fab-kappa Kinetics Biotin Conjugate (Thermo Fisher Scientific) was immobilized were used. The antibodies of interest were captured onto these chips and each FcγR diluted in the running buffer was allowed to interact with them. Chips were regenerated with 10 mM Glycine-HCl (pH 1.5) and 25 mM NaOH, and assay was performed by repeatedly capturing antibodies. The dissociation constants KD (mol/L) for FcγRs of each antibody were calculated using Biacore T200 Evaluation Software 2.0, and using the 1:1 Langmuir binding model for FcγRIa and FcγRIIIa and the steady state affinity model for FcγRIIa. For FcγRIIb, the binding amount of FcγRIIb per unit amount of antibody was calculated by correcting the binding amount of FcγRIIb obtained from the sensorgram obtained by the measurement with the amount of antibody captured onto the chip surface.

[2] = biological target: T2, human FcγRIa extracellular domain with C-terminal His-tag (human, UniProt P12314 16-292); assay: as above
T2 construct: extracellular domain; also called hFcγR Ia; hFcγRIa
T2 sequence (P12314 16-292): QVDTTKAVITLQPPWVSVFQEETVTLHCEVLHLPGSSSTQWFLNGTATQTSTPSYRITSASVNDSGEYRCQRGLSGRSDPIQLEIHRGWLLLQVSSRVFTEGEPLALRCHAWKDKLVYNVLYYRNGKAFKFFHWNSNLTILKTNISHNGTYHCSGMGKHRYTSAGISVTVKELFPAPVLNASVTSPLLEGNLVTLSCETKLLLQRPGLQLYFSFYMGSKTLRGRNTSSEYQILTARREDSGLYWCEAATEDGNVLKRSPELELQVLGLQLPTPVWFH
Protocol: as §1

[3] = biological target: T3, human FcγRIIIa V allotype extracellular domain with C-terminal His-tag (human, UniProt P08637 17-208); assay: as above
T3 construct: extracellular domain; also called hFcγR IIIa V
T3 sequence (P08637 17-208 F176V): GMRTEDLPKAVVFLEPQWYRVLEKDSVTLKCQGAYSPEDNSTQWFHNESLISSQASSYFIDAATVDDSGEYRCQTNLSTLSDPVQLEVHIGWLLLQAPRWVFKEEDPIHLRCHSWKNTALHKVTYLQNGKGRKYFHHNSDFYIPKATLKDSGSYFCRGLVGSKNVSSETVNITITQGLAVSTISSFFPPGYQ
Protocol: as §1

[4] = biological target: T4, human FcγRIIa R allotype extracellular domain with C-terminal His-tag (human, UniProt P12318 34-217); assay: as above
T4 construct: extracellular domain; also called hFcγR IIa R
T4 sequence (looked up): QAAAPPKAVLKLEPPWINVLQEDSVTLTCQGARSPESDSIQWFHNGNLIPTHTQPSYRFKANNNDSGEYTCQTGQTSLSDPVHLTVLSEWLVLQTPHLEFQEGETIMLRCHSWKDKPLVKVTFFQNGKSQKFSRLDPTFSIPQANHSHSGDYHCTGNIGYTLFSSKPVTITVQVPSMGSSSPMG
Protocol: as §1

[5] = biological target: T5, human FcγRIIIa F allotype extracellular domain with C-terminal His-tag (human, UniProt P08637 17-208); assay: as above
T5 construct: extracellular domain; also called hFcγR IIIa F
T5 sequence (P08637 17-208): as the sequence (P08637 17-208 F176V) above, with V160F counted along it
Protocol: as §1

human FcRn [6] = biological target: T6, human FcRn (human, UniProt P55899 24-290; P61769 21-119); assay: SPR Biacore T200, Ab captured via Fab-kappa, pH 6.0, steady state
T6 construct: Prepared by the method of WO 2010/107110; also called hFcRn
T6 sequence (P55899 24-290 limits assumed, chain 1 of 2): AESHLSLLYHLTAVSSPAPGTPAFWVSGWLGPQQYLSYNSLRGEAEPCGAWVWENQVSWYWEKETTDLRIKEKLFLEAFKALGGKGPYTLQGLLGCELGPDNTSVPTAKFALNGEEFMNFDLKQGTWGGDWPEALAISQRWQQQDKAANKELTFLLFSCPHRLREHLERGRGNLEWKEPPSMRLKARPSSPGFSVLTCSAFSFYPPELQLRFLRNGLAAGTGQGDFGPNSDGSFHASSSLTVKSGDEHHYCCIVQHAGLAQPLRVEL
T6 sequence (P61769 21-119 limits assumed, chain 2 of 2): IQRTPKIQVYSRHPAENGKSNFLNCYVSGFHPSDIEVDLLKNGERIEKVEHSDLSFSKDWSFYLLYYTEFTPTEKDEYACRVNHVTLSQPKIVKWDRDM

[7] = biological target: T7, human FcγRIIb extracellular domain with C-terminal His-tag (human, UniProt P31994 43-217); assay: SPR; binding amount divided by that of 04H1389-G1m/04L1615-k0MT
T7 construct: extracellular domain; also called hFcγR IIb
T7 sequence (looked up): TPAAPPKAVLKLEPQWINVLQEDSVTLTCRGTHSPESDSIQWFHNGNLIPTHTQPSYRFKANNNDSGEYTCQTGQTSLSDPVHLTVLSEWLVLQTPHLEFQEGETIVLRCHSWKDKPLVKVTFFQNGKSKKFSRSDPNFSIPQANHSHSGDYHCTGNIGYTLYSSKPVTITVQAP

human FcRn [8] = biological target: T6, human FcRn; assay: SPR; KD of 04H1389-G1m/04L1615-k0MT divided by KD of variant
[9] = biological target: T1, human FcγRIIa H allotype extracellular …; assay: as above
[10] = biological target: T2, human FcγRIa extracellular domain with …; assay: as above
[11] = biological target: T3, human FcγRIIIa V allotype extracellular …; assay: as above
[12] = biological target: T4, human FcγRIIa R allotype extracellular …; assay: as above
[13] = biological target: T7, human FcγRIIb extracellular domain with …; assay: SPR; FcγRIIb bound amount per unit captured Ab
human FcRn [14] = biological target: T6, human FcRn; assay: SPR Biacore T200, Ab captured via Fab-lambda, pH 6.0, 25C, steady state
Protocol: (§2) The interaction between the generated antibodies and human FcRn was analyzed by the following method using Biacore T200. 50 mM Na-Phosphate, 150 mM NaCl, 0.05% Tween20 (pH 6.0) was used as the running buffer, and the assay was performed at 25° C. For the sensor chip, Series S SA (GE Healthcare) chips onto which CaptureSelect Human Fab-lambda Kinetics Biotin Conjugate (Thermo Fisher Scientific) was immobilized were used. The antibodies of interest were captured onto these chips and FcRn diluted in the running buffer was allowed to interact with them. Chips were regenerated with 10 mM Glycine-HCl (pH 1.5) and 25 mM NaOH, and assay was performed by repeatedly capturing antibodies. The dissociation constant for FcRn of each antibody was calculated using the steady state model, using Biacore T200 Evaluation Software 2.0.

[15] = biological target: T7, human FcγRIIb extracellular domain with …; assay: SPR; FcγRIIb at 1000 nM, bound amount per unit captured Ab
Protocol: (§3) The interaction between the generated antibodies and human FcγRs was analyzed by the following method using Biacore T200. 50 mM Na-Phosphate, 150 mM NaCl, 0.05% Tween20 (pH 7.4) was used as the running buffer, and the assay was performed at 25° C. For the sensor chips, Series S SA (GE Healthcare) chips onto which CaptureSelect Human Fab-lambda Kinetics Biotin Conjugate (Thermo Fisher Scientific) was immobilized were used. The antibodies of interest were captured onto these chips and each FcγR diluted in the running buffer was allowed to interact with them. Chips were regenerated with 10 mM Glycine-HCl (pH 1.5) and 25 mM NaOH, and assay was performed by repeatedly capturing antibodies. The dissociation constants KD (mol/L) for FcγRs of each antibody were calculated using Biacore T200 Evaluation Software 2.0, using the 1:1 Langmuir binding model for FcγRIa and FcγRIIIa and the steady state affinity model for FcγRIIa. For FcγRIIb, the binding amount of FcγRIIb per unit amount of antibody was calculated by correcting the binding amount of FcγRIIb obtained from the sensorgram obtained by the measurement with the amount of antibody captured onto the chip surface.

[16] = biological target: T1, human FcγRIIa H allotype extracellular …; assay: SPR Biacore T200, Ab captured via Fab-lambda, pH 7.4, 25C;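 note: antibodies captured on a streptavidin chip carrying biotinylated anti-Fab-lambda, with each FcγR injected as analyte in phosphate buffer. KD fitted by 1:1 Langmuir or steady-state model depending on receptor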
[17] = biological target: T2, human FcγRIa extracellular domain with …; assay: as above
[18] = biological target: T3, human FcγRIIIa V allotype extracellular …; assay: as above
[19] = biological target: T4, human FcγRIIa R allotype extracellular …; assay: as above
[20] = biological target: T5, human FcγRIIIa F allotype extracellular …; assay: as above
[21] = biological target: T7, human FcγRIIb extracellular domain with …; assay: SPR; binding amount divided by that of 04H1637-G1m/04L1610-lam1
human FcRn [22] = biological target: T6, human FcRn; assay: SPR; KD of 04H1637-G1m/04L1610-lam1 divided by KD of variant;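 note: biacore T200 SPR at 25 °C, antibodies captured on anti-Fab-lambda SA chip with receptor as analyte, running buffer pH 7.4 for FcγRs and pH 6.0 for FcRn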
Protocol: as §3, §2

[23] = biological target: T1, human FcγRIIa H allotype extracellular …; assay: as above
Protocol: as §3, §2

[24] = biological target: T2, human FcγRIa extracellular domain with …; assay: as above
Protocol: as §3, §2

[25] = biological target: T3, human FcγRIIIa V allotype extracellular …; assay: as above
Protocol: as §3, §2

[26] = biological target: T4, human FcγRIIa R allotype extracellular …; assay: as above
Protocol: as §3, §2

[27] = biological target: T5, human FcγRIIIa F allotype extracellular …; assay: as above
Protocol: as §3, §2

B1: 04H1389-Km473/04L1615-k0MT//04H1389-Hm482/04L1615-k0MT (antibody)
heavy 1: EVQLVESGGGLVKPGGSLRLSCAASGFTFSSKTMNWVRQAPGKGLEWVSSISTQSHYIYYAESVKGRFTISRDNAKNSLYLQMNSLRAEDTAVYYCARYGKREDMLWVFDYWGQGTLVTVSSASTKGPSVFPLAPSSKSTSGGTAALGCLVKDYFPEPVTVSWNSGALTSGVHTFPAVLQSSGLYSLSSVVTVPSSSLGTQTYICNVNHKPSNTKVDKRVEPKSCDKTHTCPPCPAPEFQWGPMVFLFPPKPKDVLMISRTPEVTCVVVDVSDEEPEVKFNWYVDGVEVHNAKTKPREEQYNATYRVVSVLPVLHQDWLNGKEYKCKVSNDALPAPIEKTISKAKGQPREPQVCTLPPSREEMTKNQVSLWCLVKGFYPSDIAVEWESNGQPENNYKTTPPVLDSDGSFFLYSKLTVDKSRWQQGNVFSCSVMHEALHAHTTRKELSLSP
heavy 2: EVQLVESGGGLVKPGGSLRLSCAASGFTFSSKTMNWVRQAPGKGLEWVSSISTQSHYIYYAESVKGRFTISRDNAKNSLYLQMNSLRAEDTAVYYCARYGKREDMLWVFDYWGQGTLVTVSSASTKGPSVFPLAPSSKSTSGGTAALGCLVKDYFPEPVTVSWNSGALTSGVHTFPAVLQSSGLYSLSSVVTVPSSSLGTQTYICNVNHKPSNTKVDKRVEPKSCDKTHTCPPCPAPELLAGPSVFLFPPKPKDVLMISRTPEVTCVVVDVSHEEPEVKFNWYVDGVEVHNAKTKPREEQYNATYRVVSVLPVLHQDWLNGKEYKCKVSNDALPKPDEETISKAKGQPREPQVYTLPPSRCEMTKNQVSLSCAVKGFYPSDIAVEWESNGQPENNYKTTPPVLDSDGSFFLVSKLTVDKSRWQQGNVFSCSVMHEALHAHTTRKELSLSP
light: DIVMTQSPLSLPVTPGEPASISCQGPSTGVGDYNYVHWYQQKPGQAPRLLIYFTSKKPSGVPDRFSGSGSGTDFTLKISRVEAEDVGVYYCQTYAAPLGPMFGQGTKLEIKRTVAAPSVFIFPPSDEQLKSGTASVVCLLNNFYPREAKVQWKVDNALQSGNSQESVTEQDSKDSTYSLSSTLTLSKADYEKHKVYACEVTHQGLSSPVTKSFNRGEC
notes: Heterodimerized antibody with N434A/Y436T/Q438R/S440E
[1]
  Kd: 87 nM
[2]
  Kd: 0.062 nM
[3]
  Kd: 1.3 nM
[4]
  Kd: 180 nM
[5]
  Kd: 2.6 nM
Human FcRn [6]
  Kd: 460 nM
[7]
  Relative binding amount: 2.1
Human FcRn [8]
  Relative value to KD between G1m and hFcRn: 2.8
[9]
  Relative value to KD between G1m and hFcγRs: 12.3
[10]
  Relative value to KD between G1m and hFcγRs: 0.7
[11]
  Relative value to KD between G1m and hFcγRs: 705
[12]
  Relative value to KD between G1m and hFcγRs: 8.2
[13]
  Binding amount: 0.024

B2: 04H1654-KT481/04L1612-lam1//04H1656-HT498/04L1612-lam1 (antibody)
heavy 1: QVQLVESGGGVVQPGGSLRLSCAASGFTFSSKTMNWVRQAPGKGLEWVSSISTQSHYIYYARSVRGRFTISRDNAKNSLYLQMNSLRAEDTAVYYCARYGKREDMLWVFDYWGQGTLVTVSSASTKGPSVFPLAPSSKSTSGGTAALGCLVKDYFPEPVTVSWNSGALTSGVHTFPAVLQSSGLYSLSSVVTVPSSSLGTQTYICNVNHKPSNTKVDKRVEPKSCDKTHTCPPCPAPEFQWGPMVFLFPPKPKDVLMISRTPEVTCVVVDVSDEEPEVKFNWYVDGVEVHNAKTKPREEQYNATYRVVSVLPVLHQDWLNGKEYKCKVSNDALPAPEEKTISKAKGQPREPQVYTLPPSRKEMTKNQVSLTCLVKGFYPSDIAVEWESNGQPENNYKTTPPVLDSDGSFFLYSKLTVDKSRWQQGNVFSCSVMHEALHAHTTRKELSLSP
heavy 2: QVQLVESGGGVVQPGGSLRLSCAASGFTFSSKTMNWVRQAPGKGLEWVSSISTQSHYIYYAESVRGRFTISRDNAKNSLYLQMNSLRAEDTAVYYCARYGAREDMLWVFDYWGQGTLVTVSSASTKGPSVFPLAPSSKSTSGGTAALGCLVKDYFPEPVTVSWNSGALTSGVHTFPAVLQSSGLYSLSSVVTVPSSSLGTQTYICNVNHKPSNTKVDKRVEPKSCDKTHTCPPCPAPELLAGPSVFLFPPKPKDVLMISRTPEVTCVVVDVSHEEPEVKFNWYVDGVEVHNAKTKPREEQYNATYRVVSVLPVLHQDWLNGKEYKCKVSNDALPAPEEETISKAKGQPREPQVYTLPPSREEMTKNQVSLTCLVKGFYPSDIAVEWESNGQPENNYKTTPPVLDSDGSFFLYSKLTVDKSRWQQGNVFSCSVMHEALHAHTTREELSLSP
light: QSALTQPPSASGSPGQSVTISCEGPSTGVGDYTYVHWYQQHPGKAPKLMIYFTSKKPSGVPDRFSGSKSGNTASLTVSGLQAEDEADYYCQTYAAPLGPMFGGGTKLTVLGQPKAAPSVTLFPPSSEELQANKATLVCLISDFYPGAVTVAWKADSSPVKAGVETTTPSKQSNNKYAASSYLSLTPEQWKSHRSYSCQVTHEGSTVEKTVAPTECS
notes: as for B1
Human FcRn [14]
  Kd: 600 nM
[15]
  Binding amount: 0.022
[16]
  Kd: 230 nM
[17]
  Kd: 0.043 nM
[18]
  Kd: 1.7 nM
[19]
  Kd: 270 nM
[20]
  Kd: 2.9 nM
[21]
  Relative binding amount: 2.8
Human FcRn [22]
  Relative value to KD between G1m and hFcRn: 2.2
[23]
  Relative value to KD between G1m and hFcγRs: 6.4
[24]
  Relative value to KD between G1m and hFcγRs: 1.1
[25]
  Relative value to KD between G1m and hFcγRs: 145
[26]
  Relative value to KD between G1m and hFcγRs: 7.6
[27]
  Relative value to KD between G1m and hFcγRs: 479
